Results from patent publication US20150344571A1 (KANGWON NATIONAL UNIVERSITY UNIVERSITY INDUSTRY COOPERATION …, published 2015).
Positions count from the first letter of the chain named. Names and notes keep the numbering of the source. Values belong to the binder of their own block, whether it stands above or below them.

How the values were obtained:
[1] = target: T1, human L1CAM (purified extracellular domain) (human, UniProt P32004 20-1112); assay: competitive ELISA
T1 construct: range 1-1112; Expressed in HEK293T from pJK-dhfr2-L1-monomer; The stated range 1-1112 begins at residue 1 of the precursor; no signal peptide limits are stated; also called human L1CAM antigen
Method: (§1) The affinities of the purified antibodies for human L1CAM were measured by competitive ELISA. Human L1CAM was prepared at a density of 1×10⁻⁶ M and serially diluted to 1×10⁻¹¹ M using a PBS buffer solution. Respective antibodies were prepared by diluting them in PBS buffer solution at particular concentrations according to their binding capacity. The antigens and antibodies thus diluted were reacted with each other at the same volume ratio, and allowed to react at room temperature for 2 hours.
(§2) 96-well plates (MaxiSorp, Nunc) were coated using the purified human L1CAM which were diluted in a buffer solution (15 mM Na₂CO₃, 34.84 mM NaHCO₃, pH 9.6) at a concentration of 100 ng/well, at 4° C. overnight. Next day, the wells were washed with 0.05% PBS-T buffer solution twice. Difco skim milk (BD) was dissolved in 0.05% PBS-T buffer solution at a concentration of 2%, and 200 μl thereof was added to each well, followed by incubation at room temperature for 1 hour. Then, the wells were washed with 0.05% PBS-T buffer solution twice. To the plate, 100 it of the antigen/antibody reactant that were reacted for 2 hours was added and allowed to react at room temperature for 1 hour. Then, the wells were washed with 0.05% PBS-T buffer solution three times to remove non-antigen bound antibodies. Goat anti-human IgG(Fc)-HRP (Pierce, 1/5000) that specifically recognizes the Fc region of human antibody was added as a secondary antibody, and allowed to react at room temperature for 1 hour. Then, the wells were washed with 0.05% PBS-T buffer solution four times to remove the remaining secondary antibodies. […] Then, 50 μl of 2.5 M H₂SO₄ solution was added to each well to terminate the enzymatic reaction. After terminating the reaction, absorbance was measured at 450 nm (VERSAmax microplate reader, Molecular Devices).
Affinity of the purified Ab417 antibody for human L1CAM was measured by competitive ELISA in the same manner as in Example 3-2.

[2] = target: T1, human L1CAM (purified extracellular …); assay: Octet RED (called SPR in the filing), antibody on AHC sensor, soluble human L1CAM
Method: (§3) In addition to the competitive ELISA, SPR (surface […] resonance) was measured using Octet RED (ForteBio, USA) according to the manufacturer's protocol to determine the affinities of Ab417 antibody and Ab4M antibody for human and mouse L1CAM. […] AHC (anti-human IgG Fc capture) sensor chip was used to analyze binding kinetics of the antibodies to antigens by examining changes in refractive index which occurs upon association and dissociation of antibody and antigen while transferring the sensor chip to PBS solution, antibody, PBS solution, antigen, and PBS solution in this order.

[3] = target: T2, mouse L1CAM (purified extracellular domain with S1 tag) (mouse, UniProt P11627 20-1123); assay: competitive ELISA with mouse L1CAM
T2 construct: extracellular domain; also called mouse L1CAM monomer; not shown: S1 tag from the pJEX2T vector

[4] = target: T2, mouse L1CAM (purified extracellular …); assay: Octet RED (called SPR in the filing), antibody on AHC sensor, soluble mouse L1CAM
Method: as §3

[5] = target: T1, human L1CAM (purified extracellular …); assay: competitive ELISA (soluble human L1CAM against coated human L1CAM)
Method: as §1, §2

[6] = target: T2, mouse L1CAM (purified extracellular …); assay: Octet RED, antibody on AHC sensor, soluble mouse L1CAM
Method: (§4) Affinities of Ab417, Ab417-H6L2 mutant, and Ab417-H6L6 mutant for human and mouse L1CAM were examined using Octet RED (fortebio). […] Each 200 it thereof was added to opaque 96-well plate to prevent light transmission. AHC (anti-human IgG Fc capture) sensor chip was used to analyze binding kinetics of the antibodies to antigens by examining changes in refractive index which occurs upon association and dissociation of antibody and antigen while transferring the sensor chip to PBS solution, antibody, PBS solution, antigen, and PBS solution in this order.
(§5) Despite amino acid substitution, there were no changes in the affinities of these antibodies (Table 4), and there were also no changes in the affinities of these antibodies for mouse L1CAM (Table 5).

[7] = target: T1, human L1CAM (purified extracellular …); assay: Octet RED, antibody on AHC sensor, soluble human L1CAM
Method: as §4, §5

[8] = target: T2, mouse L1CAM (purified extracellular …); assay: indirect ELISA on coated mouse L1CAM, mutant IgG in culture supernatant, relative to Ab4
Excerpt: The expression vectors of respective mutants were obtained in a large amount, and transfected to human embryonic kidney HEK293T cells using Lipofectamine 2000 (invitrogen), followed by culture. The transfected cells produce and secrete whole antibodies out of the cells, and the culture supernatants were collected and subjected to indirect ELISA as follows. 96-well plates (MaxiSorp, Nunc) were coated using the purified extracellular domain of human L1CAM (hereinafter, referred to as ‘human L1CAM’) and the extracellular domain of purified mouse L1CAM (hereinafter, referred to as ‘mouse L1CAM’) as antigens, which were diluted in a buffer solution (15 mM Na₂CO₃, 34.84 mM NaHCO₃, pH 9.6) at a concentration of 100 ng/well, at 4° C. overnight. Next day, the plate was washed with 0.05% PBS-T buffer solution twice. Difco skim milk (BD) was dissolved in 0.05% PBS-T buffer solution at a concentration of 2%, and 200 μl thereof was added to each well, followed by incubation at 37° C. for 1 hour. Then, the wells were washed with 0.05% PBS-T buffer solution twice. To the plate, 100 μl of the supernatant was added and allowed to react at 37° C. for 1 hour. Then, the wells were washed with 0.05% PBS-T buffer solution three times to remove non-antigen bound antibodies. Goat anti-human IgG(Fc)-HRP (Pierce, 1/5000) that specifically recognizes the Fc region of human antibody was added as a secondary antibody, and allowed to react at 37° C. for 1 hour. Then, the wells were washed with 0.05% PBS-T buffer solution four times to remove the remaining secondary antibodies.
Then, 50 μl of 2.5 M H₂SO₄ solution was added to each well to terminate the enzymatic reaction. After terminating the reaction, absorbance was measured at 450 nm (VERSAmax microplate reader, Molecular Devices).

[9] = target: T2, mouse L1CAM (purified extracellular …); assay: not stated there (summary of the filing's affinity measurements)
[10] = target: T1, human L1CAM (purified extracellular …); assay: Octet RED
Method: as §3

[11] = target: T1, human L1CAM (purified extracellular …); assay: not stated there (summary of the filing's affinity measurements); rounded summary value, no assay named

T2 sequence (P11627 20-1123): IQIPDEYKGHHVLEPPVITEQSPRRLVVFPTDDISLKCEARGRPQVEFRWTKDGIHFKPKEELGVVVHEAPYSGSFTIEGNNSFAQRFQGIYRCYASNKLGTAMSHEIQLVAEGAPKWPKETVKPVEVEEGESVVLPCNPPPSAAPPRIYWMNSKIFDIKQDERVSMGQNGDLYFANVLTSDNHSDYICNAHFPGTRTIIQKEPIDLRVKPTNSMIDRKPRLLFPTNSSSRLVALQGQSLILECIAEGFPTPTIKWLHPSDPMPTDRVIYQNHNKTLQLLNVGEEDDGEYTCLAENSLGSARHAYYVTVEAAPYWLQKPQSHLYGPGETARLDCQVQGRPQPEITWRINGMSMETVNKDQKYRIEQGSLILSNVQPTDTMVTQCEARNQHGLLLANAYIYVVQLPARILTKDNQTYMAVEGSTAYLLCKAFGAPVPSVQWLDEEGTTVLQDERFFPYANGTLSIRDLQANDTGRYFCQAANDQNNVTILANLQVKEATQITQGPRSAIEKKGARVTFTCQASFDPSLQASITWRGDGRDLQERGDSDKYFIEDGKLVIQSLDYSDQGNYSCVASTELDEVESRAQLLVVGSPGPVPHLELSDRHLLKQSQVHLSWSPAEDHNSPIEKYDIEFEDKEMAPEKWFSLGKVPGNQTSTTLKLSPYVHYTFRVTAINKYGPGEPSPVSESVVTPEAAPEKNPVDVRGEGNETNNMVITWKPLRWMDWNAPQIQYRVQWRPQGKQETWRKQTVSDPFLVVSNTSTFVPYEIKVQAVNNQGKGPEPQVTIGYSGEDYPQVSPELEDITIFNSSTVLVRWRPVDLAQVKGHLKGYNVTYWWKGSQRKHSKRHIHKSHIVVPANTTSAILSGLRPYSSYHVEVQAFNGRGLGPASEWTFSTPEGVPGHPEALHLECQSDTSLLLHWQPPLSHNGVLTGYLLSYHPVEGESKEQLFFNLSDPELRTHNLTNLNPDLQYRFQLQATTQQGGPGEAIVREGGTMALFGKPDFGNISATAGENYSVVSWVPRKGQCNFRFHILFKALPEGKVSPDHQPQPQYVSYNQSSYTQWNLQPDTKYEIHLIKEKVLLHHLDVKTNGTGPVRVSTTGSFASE
T1 sequence (P32004 20-1112 limits assumed, form in doubt): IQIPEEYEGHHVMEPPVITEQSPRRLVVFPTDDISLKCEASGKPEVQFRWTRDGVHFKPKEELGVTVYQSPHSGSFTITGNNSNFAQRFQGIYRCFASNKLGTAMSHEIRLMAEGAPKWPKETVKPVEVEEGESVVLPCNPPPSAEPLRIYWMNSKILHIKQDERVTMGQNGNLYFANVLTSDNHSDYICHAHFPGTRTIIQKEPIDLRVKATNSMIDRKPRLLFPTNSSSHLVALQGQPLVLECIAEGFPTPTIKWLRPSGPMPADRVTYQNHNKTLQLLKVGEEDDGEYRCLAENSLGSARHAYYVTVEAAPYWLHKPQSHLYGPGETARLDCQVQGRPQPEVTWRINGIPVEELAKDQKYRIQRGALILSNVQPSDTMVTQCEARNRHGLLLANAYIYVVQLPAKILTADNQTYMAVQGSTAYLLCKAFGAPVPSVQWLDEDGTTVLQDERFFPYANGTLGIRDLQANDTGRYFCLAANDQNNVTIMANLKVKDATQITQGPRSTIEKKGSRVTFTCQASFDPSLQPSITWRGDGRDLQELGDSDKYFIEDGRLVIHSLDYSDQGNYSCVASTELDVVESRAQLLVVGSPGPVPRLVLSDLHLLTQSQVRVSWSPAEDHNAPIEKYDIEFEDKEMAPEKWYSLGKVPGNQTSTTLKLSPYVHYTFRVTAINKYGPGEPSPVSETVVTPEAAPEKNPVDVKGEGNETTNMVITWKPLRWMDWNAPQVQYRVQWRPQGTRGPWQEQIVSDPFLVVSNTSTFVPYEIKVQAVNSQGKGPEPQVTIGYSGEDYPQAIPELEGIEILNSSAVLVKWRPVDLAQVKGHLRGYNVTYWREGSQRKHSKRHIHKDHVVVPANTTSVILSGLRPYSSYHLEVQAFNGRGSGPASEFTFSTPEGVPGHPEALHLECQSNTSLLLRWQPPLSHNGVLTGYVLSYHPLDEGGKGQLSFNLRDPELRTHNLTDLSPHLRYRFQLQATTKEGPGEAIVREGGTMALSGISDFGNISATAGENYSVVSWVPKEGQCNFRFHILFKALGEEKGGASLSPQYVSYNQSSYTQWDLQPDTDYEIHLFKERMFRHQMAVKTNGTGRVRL

B1: Ab4M antibody (antibody, IgG1, V domains shown)
VH: EVQLVESGGGVVQPGRSLRLSCAASGFTFSRFGMHWVRQAPGKGLEWVAFISNDGSNKYYADSVKGRFTISRDNSKNTLYLQMNSLRPEDTAVYYCARGRAYGSGSLFDPWGQGTLVTVSS
VL: DIQLTQSPSSLSASVGDRVTITCRASRTISIYVNWYRQRPGKAPESLIYAASNLHSGVPSRFSGSGSGTDFTLTISSLQPEDFATYYCQQTHATRQYTFGQGTKLEIK
notes: Ab4 with V50F and H97A in VH and V75I, G84A and D93A in VK; Whole IgG (IgG1 vector pdCMV-dhfrC-Ab4M)
fold higher affinity than Ab4 [1]: ~45 fold
Kd [2]: 0.33 nM
koff [2]: 4.3e-05 s⁻¹
kon [2]: 130000 M⁻¹ s⁻¹
Kd [3]: 0.22 nM
fold higher affinity than Ab4 [3]: ~8 fold
Kd [4]: 0.0893 nM
koff [4]: 2.22e-05 s⁻¹
kon [4]: 249000 M⁻¹ s⁻¹
Kd [5]: 2.9 nM

B4: D93A mutant of Ab4 antibody (antibody, IgG1, V domains shown)
VH: B1 VH with F50V, A101H
VL: B1 VL with I75V, A84G
notes: Whole IgG made in the pdCMV-dhfrC-Ab4 vector (IgG1); also called VK D93A mutant
Kd [5]: 30 nM

B5: H97A mutant of Ab4 antibody (antibody, IgG1, name in Kabat numbering, V domains shown)
VH: B1 VH with F50V
VL: B1 VL with I75V, A84G, A93D
notes: Whole IgG made in the pdCMV-dhfrC-Ab4 vector (IgG1); also called VH H97A mutant of Ab4
Kd [5]: 29 nM

B9: Ab417 antibody (antibody, V domains shown)
VH: B1 VH
VL: B1 VL with T91S, H92I, A93G, T94R, R95G, Q96V, Y97V
notes: Whole IgG expressed from pdCMV-dhfrC-Ab417; also called IgG form of Ab4M-18 (codon-optimised)
Kd [9]: 0.1 nM
fold higher affinity than Ab4 [1]: ~92 fold
fold higher affinity than Ab4M [1]: ~2.4 fold
Kd [6]: 0.108 nM
koff [6]: 2.64e-05 s⁻¹
kon [6]: 244000 M⁻¹ s⁻¹
Kd [2]: 0.18 nM
koff [2]: 2.33e-05 s⁻¹
kon [2]: 127000 M⁻¹ s⁻¹
Kd [7]: 0.239 nM
koff [7]: 4.51e-05 s⁻¹
kon [7]: 189000 M⁻¹ s⁻¹
Kd [3]: 0.21 nM
fold higher affinity than Ab4 [3]: ~8 fold
Kd [4]: 0.0348 nM
koff [4]: 8.1e-06 s⁻¹
kon [4]: 233000 M⁻¹ s⁻¹
fold higher affinity than Ab4M [10]: ~2 fold
Kd [5]: 1.2 nM
Kd [11]: 0.2 nM

B10: V50F/H97A mutant of Ab4 antibody (antibody, name in Kabat numbering, V domains shown)
VH: B1 VH
VL: B1 VL with I75V, A84G, A93D
notes: also called VH V50F/H97A mutant
Kd [5]: 18 nM

The remaining lines, values ahead:

Kd [6]: 0.0984 nM
koff [6]: 2.11e-05 s⁻¹
kon [6]: 214000 M⁻¹ s⁻¹
Kd [7]: 0.246 nM
koff [7]: 3.64e-05 s⁻¹
kon [7]: 148000 M⁻¹ s⁻¹
B2: Ab417-H6L6 antibody (antibody, V domains shown)
VH: B1 VH with R16G, D54E, K76A, P88A
VL: DIQLTQSPSSLSASVGDRVTITCRASRTISSYVNWYQQKPGQAPESLIYAASNLHSGVPSRFSGSGSGTDFTLTISSLQPEDFATYYCQQSIGRGVVTFGQGTKLEIK
notes: L6 is the Ab417 VK with I31S, R37Q, R39K and K42Q; also called Ab417-H6L6 mutant; H6L6 mutant

Kd [6]: 0.131 nM
koff [6]: 2.67e-05 s⁻¹
kon [6]: 204000 M⁻¹ s⁻¹
Kd [7]: 0.22 nM
koff [7]: 3.22e-05 s⁻¹
kon [7]: 146000 M⁻¹ s⁻¹
B3: Ab417-H6L2 antibody (antibody, V domains shown)
VH: B1 VH with R16G, D54E, K76A, P88A
VL: B2 VL with Q37R, K39R, Q42K
notes: H6 is the Ab417 VH with R16G, D54E, K76A and P88A; L2 is the Ab417 VK with I31S; also called Ab417-H6L2 mutant; H6L2 mutant

binding result [8]: no binding
B6: Y98A (antibody, V domains shown)
VH: B1 VH with F50V, A101H, Y102A
VL: B1 VL with I75V, A84G, A93D
notes: whole IgG; also called Ab4 VH Y98A (HCDR3 alanine mutant); copies: 2 + 2

binding result [8]: no binding
B7: G99A (antibody, V domains shown)
VH: B1 VH with F50V, A101H, G103A
VL: B1 VL with I75V, A84G, A93D
notes: whole IgG; also called Ab4 VH G99A (HCDR3 alanine mutant); copies: 2 + 2

binding result [8]: no binding
B8: R96A (antibody, V domains shown)
VH: B1 VH with F50V, R100A, A101H
VL: B1 VL with I75V, A84G, A93D
notes: whole IgG; also called Ab4 VH R96A (HCDR3 alanine mutant); copies: 2 + 2
